# Results from the supplement of paper PMC10567573.
# B1: ZNF193 (parent)
# chain: QKRYHCKECGKVFSQSAGLIQHQR
# B2: GLTSCR2 (parent)
# chain: YNPSFEDHQTLLSAAHEVELQRQK
# Variants of: B1
# Assay: protein stability index of a GFP-peptide fusion (GPS, HEK-293T) (PSI 1-6); higher = more stable
# Conditions: c terminus: a fixed tail appended
# 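Note: lentivirally expressed fusions sorted by FACS into six bins by GFP to DsRed ratio, PSI derived from sequencing read proportions per bin multiplied by bin number.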
row,Variant,protein stability index
1,R3E,3.26
2,R3F,3.6
3,R3A,3.18
4,R3I,3.55
5,R3G,2.93
6,R3C,3.48
7,R3H,2.92
8,R3K,3.23
9,R3D,2.35
10,Q1W,1.9
11,Q1I,3.03
12,Q1R,3.19
13,Q1S,2.88
14,Q1H,2.73
15,Q1D,3.71
16,Q1A,2.67
17,Q1N,2.32
18,Q1V,3.05
19,Q1Y,2.2
20,Q1P,3.16
21,Q1K,3.1
22,Q1M,2.45
23,Q1G,2.81
24,Q1C,2.42

row,Variant,protein stability index
1,Q1E,3.7
2,Q1F,2.45
3,Q1L,2.62
4,Q1T,2.98
5,K2V,2.58
6,K2N,2.86
7,K2H,3.06
8,K2E,3.08
9,K2W,2.17
10,K2M,3.1
11,K2G,3.31
12,K2C,2.39
13,K2Q,3.04
14,K2D,3.31
15,K2R,2.76
16,K2I,2.81
17,K2P,3.07
18,K2T,2.24
19,K2A,2.85
20,K2Y,2.6
21,K2S,2.48
22,K2L,2.81
23,K2F,2.31

# Variants of: B2
# Assay: as above
# Conditions: c terminus: a fixed tail appended
row,Variant,protein stability index
1,S4A,4.1
2,S4W,3.67
3,S4T,3.79
4,S4I,3.82
5,S4P,4.69
6,S4G,3.88
7,S4C,4.07
8,S4E,4.72
9,S4N,4.48
10,S4L,3.95
11,K24I,3.33
12,K24T,3.98
13,K24N,3.96
14,K24Y,3.18
15,K24E,4.36
16,K24M,3.28
17,K24S,3.97
18,K24L,3.48
19,K24C,3.22
20,K24A,3.39
21,P3M,4.08
22,P3H,4.67
23,P3I,3.82
24,P3R,3.85

row,Variant,protein stability index
1,P3K,4.3
2,P3Q,5.13
3,P3G,4.35
4,P3L,4.3
5,P3V,3.73
6,P3C,3.37
7,P3A,4.25
8,R22E,4.69
9,R22I,2.91
10,R22M,3.4
11,R22Q,4.24
12,R22A,4.18
13,R22K,4.13
14,R22Y,3.16
15,R22F,3.43
16,R22W,2.71
17,R22V,3.7
18,E19I,2.85
19,E19V,2.67
20,E19Y,2.42
21,E19C,3.33
22,E19A,2.63
23,E19R,2.69
24,E19W,2.75

row,Variant,protein stability index
1,E19F,2.49
2,E19G,3.8
3,E19N,3.36
4,E19D,4.05
5,E19Q,3.36
6,Y1E,4.87
7,Y1Q,5.07
8,Y1N,4.71
9,Y1P,5.16
10,Y1T,4.67
11,Y1D,5.25
12,Y1I,4.74
13,Y1K,4.87
14,Y1V,5.11
15,L11F,2.81
16,L11Q,4.88
17,L11R,4.19
18,L11G,4.58
19,L11N,4.96
20,L11H,4.57
21,L11D,5.01
22,L11V,3.98
23,L11T,5.29
24,L11S,4.95

row,Variant,protein stability index
1,L11C,4.26
2,L11W,2.38
3,Q21K,3.17
4,Q21H,2.96
5,Q21L,2.96
6,Q21C,3.61
7,Q21S,3.96
8,Q21E,3.42
9,Q21T,3.44
10,Q21F,3.06
11,Q21V,3.28
12,Q21W,3.06
13,L20F,3.57
14,L20C,3.99
15,L20S,4.26
16,L20D,4.29
17,L20N,4.09
18,L20G,4.16
19,L20M,3.67
20,L20A,4.04
21,L20I,3.71
22,L20H,4.51
23,L20P,4.46
24,L20K,4.44

row,Variant,protein stability index
1,S13E,3.2
2,S13A,3.21
3,S13T,4.17
4,S13F,2.66
5,S13W,1.51
6,S13L,2.9
7,S13I,2.45
8,S13K,2.58
9,S13Y,2.75
10,S13R,2.56
11,S13N,3.66
12,S13C,3.25
13,S13D,3.88
14,H16N,3.92
15,H16L,3.22
16,H16S,4.45
17,H16Q,3.48
18,H16E,4.38
19,H16P,4.19
20,H16W,2.51
21,H16I,2.53
22,H16A,3.64
23,H16T,3.93
24,H16G,4.16

row,Variant,protein stability index
1,H16R,3.2
2,Q23L,3.21
3,Q23S,3.63
4,Q23W,2.95
5,Q23Y,3.19
6,Q23V,3.57
7,Q23A,3.75
8,Q23K,3.75
9,Q23T,3.68
10,Q23C,3.06
11,Q23G,4.12
12,Q23E,4.13
13,Q23P,3.96
14,A15Q,3.82
15,A15F,2.47
16,A15G,4.28
17,A15E,4.53
18,A15T,3.75
19,A15C,3.3
20,A15V,2.53
21,A15S,4.07
22,A15Y,3.48
23,A15D,4.54
24,A15K,3.96

row,Variant,protein stability index
1,A15P,3.61
2,A15M,2.93
3,A15L,2
4,T10G,3.87
5,T10E,4.44
6,T10C,3.19
7,T10I,3.05
8,T10Q,3.47
9,T10K,2.35
10,T10H,3.37
11,T10P,3.7
12,T10S,3.94
13,H8Y,1.54
14,H8P,3.86
15,H8Q,3.84
16,H8A,3.79
17,H8D,4.81
18,H8E,4.4
19,H8K,3.62
20,H8V,2.33
21,H8M,2.72
22,H8S,4.2
23,H8T,3.11
24,H8N,4.29

row,Variant,protein stability index
1,L12A,4.41
2,L12G,4.23
3,L12I,3.86
4,L12Q,4.2
5,L12N,4.54
6,L12R,4.44
7,L12T,4.62
8,L12W,1.58
9,L12D,5.35
10,L12H,4.61
11,L12Y,3.63
12,L12E,5.25
13,L12V,4.15
14,L12C,4.02
15,N2T,3.36
16,N2H,2.97
17,N2D,5.66
18,N2V,1.6
19,N2K,4.28
20,N2S,3.91
21,N2I,3.38
22,F5W,3.07
23,F5C,4
24,F5Q,4.62

row,Variant,protein stability index
1,F5P,4.02
2,F5G,4.06
3,F5V,3.83
4,F5R,3.96
5,F5S,3.88
6,F5I,4.07
7,F5A,4.22
8,F5M,3.5
9,F5N,4.43
10,F5H,4.09
11,E6D,4.14
12,E6G,3.42
13,E6T,3.09
14,E6F,2.51
15,E6C,3.25
16,E6R,2.57
17,E6L,3.04
18,E6S,3.15
19,E6Y,2.67
20,E6N,3.33
21,E6P,3.76
22,E6W,2.75
23,E6M,2.38
24,E6H,3.18

row,Variant,protein stability index
1,E6I,3.12
2,A14F,2.53
3,A14T,4.04
4,A14K,3.92
5,A14G,3.52
6,A14Q,3.86
7,A14S,4.2
8,A14W,2.51
9,A14R,3.48
10,A14V,3.41
11,A14I,3.02
12,A14D,4.29
13,A14L,3.09
14,A14Y,2.65
15,A14H,3.64
16,D7G,4.17
17,D7V,2.92
18,D7H,3.67
19,D7Q,4.27
20,D7W,1.92
21,D7A,3.72
22,D7S,4.11
23,D7I,3.21
24,D7P,4.13

row,Variant,protein stability index
1,D7Y,3.52
2,D7F,2.81
3,D7L,3.35
4,D7N,3.98
5,D7R,3.7
6,Q9H,3.68
7,Q9V,3.24
8,Q9C,3.06
9,Q9A,3.79
10,Q9R,3.13
11,Q9L,3.11
12,Q9D,4.5
13,Q9Y,3.36
14,Q9F,2.45
15,Q9M,2.72
16,Q9K,3.12
17,Q9S,4.09
18,Q9E,4.45
19,E17I,3.03
20,E17D,3.85
21,E17Q,2.94
22,E17Y,2.51
23,E17V,2.83
24,E17W,2.73

row,Variant,protein stability index
1,E17S,3.43
2,E17P,3.33
3,E17A,3.15
4,E17T,3.36
5,E17N,3.33
6,E17G,2.94
7,E17K,3.43
8,E17C,2.88
9,E17R,3.4
10,V18G,3.79
11,V18R,3.43
12,V18N,3.8
13,V18Y,3.49
14,V18F,3.1
15,V18D,4.13
16,V18M,3.65
17,V18S,3.65
18,V18P,4.41
19,V18L,3.69
20,V18E,4.44
21,V18W,2.54
22,V18A,4
23,V18T,4.24
